Experimental data as given in US20090137002A1 (published 2009).

T1: recombinant mouse EphB6 (mouse, UniProt O08644 33-591, limits assumed)
T1 construct: also called mEphB6
T1 sequence (looked up): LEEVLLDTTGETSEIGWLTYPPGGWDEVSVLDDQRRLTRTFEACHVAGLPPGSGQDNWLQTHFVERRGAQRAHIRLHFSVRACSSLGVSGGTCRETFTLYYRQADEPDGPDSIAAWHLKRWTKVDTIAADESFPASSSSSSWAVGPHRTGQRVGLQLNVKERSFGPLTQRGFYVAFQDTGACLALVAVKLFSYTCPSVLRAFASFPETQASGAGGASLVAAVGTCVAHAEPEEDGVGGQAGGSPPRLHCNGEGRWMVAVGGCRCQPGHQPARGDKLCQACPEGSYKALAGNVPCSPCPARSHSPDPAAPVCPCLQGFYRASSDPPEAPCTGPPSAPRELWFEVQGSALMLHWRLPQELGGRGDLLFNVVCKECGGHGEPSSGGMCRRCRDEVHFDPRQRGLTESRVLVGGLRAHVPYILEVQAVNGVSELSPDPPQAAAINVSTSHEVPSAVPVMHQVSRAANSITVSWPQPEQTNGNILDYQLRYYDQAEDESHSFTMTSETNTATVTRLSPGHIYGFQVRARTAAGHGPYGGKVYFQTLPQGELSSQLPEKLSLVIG

T2: recombinant mouse EphB3-Fc fusion protein (mouse, UniProt P54754 30-537, limits assumed)
T2 construct: also called mEphB3; not shown: Fc part, not described
T2 sequence (looked up): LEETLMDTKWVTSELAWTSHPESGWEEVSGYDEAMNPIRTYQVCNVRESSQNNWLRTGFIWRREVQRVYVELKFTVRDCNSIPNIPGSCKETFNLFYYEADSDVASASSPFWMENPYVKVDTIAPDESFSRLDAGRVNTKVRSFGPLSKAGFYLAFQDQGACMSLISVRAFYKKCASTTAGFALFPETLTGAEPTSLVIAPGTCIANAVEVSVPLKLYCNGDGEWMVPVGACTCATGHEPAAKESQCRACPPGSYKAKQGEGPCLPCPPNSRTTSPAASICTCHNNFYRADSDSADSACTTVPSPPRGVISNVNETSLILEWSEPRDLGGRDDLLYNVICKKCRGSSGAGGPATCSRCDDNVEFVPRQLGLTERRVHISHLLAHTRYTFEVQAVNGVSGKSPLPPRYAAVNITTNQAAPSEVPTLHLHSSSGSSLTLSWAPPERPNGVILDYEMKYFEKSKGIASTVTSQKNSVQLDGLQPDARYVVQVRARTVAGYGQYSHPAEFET

T3: recombinant human EphB4-Fc fusion protein (human, UniProt P54760 16-539)
T3 construct: extracellular domain; also called hEphB4; hu EphB4-Fc
T3 sequence (looked up): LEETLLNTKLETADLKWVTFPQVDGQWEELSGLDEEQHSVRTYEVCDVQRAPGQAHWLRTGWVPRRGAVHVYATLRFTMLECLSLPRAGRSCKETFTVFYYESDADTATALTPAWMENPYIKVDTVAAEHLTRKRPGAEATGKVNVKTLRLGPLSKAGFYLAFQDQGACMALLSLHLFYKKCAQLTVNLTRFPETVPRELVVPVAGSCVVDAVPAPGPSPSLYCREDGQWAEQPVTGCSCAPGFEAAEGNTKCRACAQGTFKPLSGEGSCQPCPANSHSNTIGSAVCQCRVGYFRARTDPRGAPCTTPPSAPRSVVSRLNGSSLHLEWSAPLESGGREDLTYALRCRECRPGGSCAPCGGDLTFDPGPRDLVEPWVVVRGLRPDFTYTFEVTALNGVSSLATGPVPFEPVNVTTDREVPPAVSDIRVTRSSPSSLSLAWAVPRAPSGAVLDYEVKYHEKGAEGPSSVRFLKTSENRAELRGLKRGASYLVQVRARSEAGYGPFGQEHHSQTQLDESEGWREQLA

T4: recombinant murine EphB4-Fc fusion protein (mouse, UniProt P54761 16-539)
T4 construct: extracellular domain; also called mEphB4; mu EphB4; not shown: Fc part, not described
T4 sequence (looked up): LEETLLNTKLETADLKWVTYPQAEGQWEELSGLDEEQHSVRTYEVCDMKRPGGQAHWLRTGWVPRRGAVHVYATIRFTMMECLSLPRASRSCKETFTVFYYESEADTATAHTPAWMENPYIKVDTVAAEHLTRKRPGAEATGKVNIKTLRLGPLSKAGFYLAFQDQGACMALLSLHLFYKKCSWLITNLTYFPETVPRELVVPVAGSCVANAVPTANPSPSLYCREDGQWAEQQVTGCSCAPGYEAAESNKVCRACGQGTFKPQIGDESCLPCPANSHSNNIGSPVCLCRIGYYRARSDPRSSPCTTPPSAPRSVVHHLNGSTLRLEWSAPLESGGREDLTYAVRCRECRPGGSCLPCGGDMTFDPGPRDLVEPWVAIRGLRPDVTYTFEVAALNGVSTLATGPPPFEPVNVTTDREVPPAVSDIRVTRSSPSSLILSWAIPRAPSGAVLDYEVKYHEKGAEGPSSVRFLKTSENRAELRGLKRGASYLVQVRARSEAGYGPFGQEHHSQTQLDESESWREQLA

B1: MOR03641 Fab (Fab, V domains shown)
VH: QVQLVQSGAEVKKPGSSVKVSCKASGGTFSTYAISWVRQAPGQGLEWMGRIIPIFGTANYAQKFQGRVTITADESTSTAYMELSSLRSEDTAVYYCARSSYTILTTYYNYNAMDNWGQGTLVTVSS
VL: DIQMTQSPSSLSASVGDRVTITCRASQNINNFLNWYQQKPGKAPKLLIYGSSILQSGVPSRFSGSGSGTDFTLTISSLQPEDFAVYYCHQVSDTSDTFGQGTKVEIKR
notes: Monomeric HuCAL Fab (VH1A, kappa1), purified, MH-tagged; also called 3541 [sic]
B2: MOR03640 Fab (Fab, V domains shown)
VH: QVQLVESGGGLVQPGGSLRLSCAASGFTFNNSWMSWVRQAPGKGLEWVSNITSSSSMTHYADSVKGRFTISRDNSKNTLYLQMNSLRAEDTAVYYCARKGMSFYNNKYAKSMFDLWGQGTLVTVSS
VL: DIELTQPPSVSVAPGQTARISCSGDNLGKKYVHWYQQKPGQAPVLVIYYDSKRPSGIPERFSGSNSGNTATLTISGTQAEDEADYYCSAWTTTMMHIVFGGGTKLTVLG
notes: Monomeric HuCAL Fab, purified, MH-tagged
B3: MOR03639 Fab (Fab, V domains shown)
VH: QVQLVESGGGLVQPGGSLRLSCAASGFTFSNYYLHWVRQAPGKGLEWVSGISYSGSSTYYADSVKGRFTISRDNSKNTLYLQMNSLRAEDTAVYYCARFYQRRQIPHGYDVWGQGTLVTVSS
VL: DIELTQPPSVSVAPGQTARISCSGDNIGDYYVHWYQQKPGQAPVLVIYRDSNRPSGIPERFSGSNSGNTATLTISGTQAEDEADYYCGSYDMPFGGTVFGGGTKLTVLG
notes: Monomeric HuCAL Fab (VH3, lambda3), purified, MH-tagged

biological target: T1, recombinant mouse EphB6; assay: ELISA on coated receptor
Procedure: (§1) A 96-well plate was coated with recombinant mEphB1, -2, -3, -4, -6, mEphA4 and hEphB4 in PBS o/n at 4° C. (5 μg/mL; 100 μL/well). The next day, the antigen was discarded and the plate blocked with 3% BSA/PBS (300 μl/well) for 2 hrs at room temperature (RT). Blocking solution was discarded and anti-EphB4 Fabs were added to the wells at a concentration of 20 μg/mL in 1% BSA/PBS and incubated for 1 hr at RT. Fabs were discarded and the plate was washed 3× with PBS. Anti-human F(ab′)₂—HRP was added at a concentration recommended by the manufacturer in 1% BSA/PBS and incubated for 1 hr at RT. The plate was washed 3× with PBS and 100 μL/well chemifluorescent substrate was added. After development, fluorescence was measured in a fluorescence reader.

binding result | Binder
no binding (tested: 20 µg/mL) | B1
no binding (tested: 20 µg/mL) | B2
no binding (tested: 20 µg/mL) | B3

biological target: T2, recombinant mouse EphB3-Fc fusion …; assay: ELISA on coated receptor
Procedure: as §1

binding result | Binder
no binding (tested: 20 µg/mL) | B1
no binding (tested: 20 µg/mL) | B2
no binding (tested: 20 µg/mL) | B3

biological target: T3, recombinant human EphB4-Fc fusion …; assay: ELISA

ELISA signal above background [fold] | Binder
10 | B1
10 | B2
10 | B3

biological target: T4, recombinant murine EphB4-Fc fusion …; assay: competition ELISA, Fab against EphrinB2-Fc on immobilized murine EphB4
Procedure: (§2) IC₅₀ values were determined using recombinant antigen (murine and human EphB4) in an ELISA and on transfected cells in a FACS analysis (human EphB4 receptor).
(§3) Binding of (a fixed concentration of) the ligand EphrinB2-Fc to immobilized EphB4 receptor on an ELISA plate or on transfected cells is titrated with anti-EphB4 Fab. The IC₅₀ is determined as the amount of Fab at which the binding of EphrinB2 is inhibited by 50%.

IC50 [µg/mL] | Binder
24 | B1
117 | B2
22 | B3

biological target: T3, recombinant human EphB4-Fc fusion …; assay: competition ELISA, Fab against EphrinB2-Fc on immobilized human EphB4
Procedure: as §2, §3

IC50 [µg/mL] | Binder
5 | B1
33 | B2
65 | B3
